Measured values taken from patent US7572600B2, “Enzymatic activities in chemokine-mediated inflammation” (Chemocentryx, Inc., priority 2004, dated 2009).
Where no end group is shown, it is not given here.

Experiments:
human neutrophils = assay: Chemotaxis of human neutrophils; type: cell-based
Experimental: Chemotaxis assay. L1.2-CCR1 transfectants, THP-1 cells, human monocytes and human neutrophils were collected by centrifugation and resuspended in HBSS containing 0.1% BSA. Chemotaxis assays were performed in 96-well ChemoTx® microplates (Neuroprobe, Rockville, Md.) as follows. Chemokines were added to the lower wells (final volume 29 μL), and 20 μL of cell suspension (5×10^6 cells/mL) was added to the polycarbonate filter (3 μm pore size for neutrophils, 5 μm for other 3 cell types). After incubation at 37° C. in the presence of 5% CO2 for 1 hr (neutrophils), 90 min (monocytes) or 2 h (THP-1 and L1.2-CCR1), cells were removed from the upper surface of the filter by scraping. Cells that migrated into the lower chamber were quantified by using the CyQuant cell proliferation assay kit (Molecular Probes, Eugene, Oreg.) and analyzed with a Tecan (Durham, N.C.) fluorimeter (excitation at 480 nm, emission at 530 nm). Data were analyzed and plotted in arbitrary units of fluorescence using Prism (GraphPad Software, San Diego, Calif.).
Chemotaxis assays. L1.2-CCR1 and L1.2-FPRL1 transfectants, monocytes and neutrophils were collected by centrifugation and resuspended in HBSS with 0.1% BSA. The assays were performed in 96-well ChemoTx® microplates (Neuroprobe, Rockville, Md.). Chemokines were diluted in HBSS with 0.1% BSA and added to the lower wells (final volume 29 μL), then 20 μL of cell suspension (5×10^6 cells/mL for monocytes; 2.5×10^6 cells/mL for neutrophils) were added to the polycarbonate filters (5 μm pore size for monocytes and FPRL1 transfectants; 3 μm pore size for neutrophils). After incubation for 90 min (37° C., 100% humidity, 5% CO2), the filters were removed and the cells that migrated into the lower chamber were quantified by using the CyQuant cell proliferation assay kit (Molecular Probes, Oreg.).

[1] = test system: monocyte-derived dendritic cells; assay: Calcium mobilization in monocyte-derived dendritic cells; type: cell-based, human
Experimental: Human monocytes were obtained from buffy coats purchased from the Stanford Blood Bank (Palo Alto, Calif.) by sedimentation on Ficoll-Paque (Amersham, Piscataway, N.J.) and selection with anti-CD14 magnetic beads (Miltenyi, Auburn, Calif.) according to the manufacturers' instructions. For generation of dendritic cells, monocytes were cultured for 6 days in RPMI-1640 medium containing 10% FBS (HyClone, Logan, Utah). On days 0, 2 and 4, GM-CSF and IL-4 (both purchased from R&D Systems, Minneapolis, Minn.) were added to the cultures at 1000 WHO unit/ml each. The cells were confirmed to be CD14^−CD1a^+ immature DC by FACS staining on day 6.
(§1) Calcium Mobilization Assay. Cells were loaded for 1 hour with 2 μM indo-1/AM dye (Molecular Probes, Eugene, Oreg.) in culture medium, then washed with 10 ml PBS and resuspended at 10^6/ml in HBSS containing 1% FBS. Cytosolic calcium responses were determined using a Photon Technology International (Lawrenceville, N.J.) fluorimeter, with excitation at 350 nm and dual emission at 400 and 490 nm. Alternatively, cells were loaded with 5 μg/ml Fluo-4 AM dye (Molecular Probes, Eugene, Oreg.), then washed and analyzed on a Fluorometric Imaging Plate Reader 384 (FLIPR^384 Molecular Devices, Sunnyvale, Calif.), with 505 nm excitation and 530 nm emission.
Immature and mature DC preparation. Immature DCs were derived by culturing CD14+ monocytes in T-175 cultured flasks at a density of 10^6 cells/ml in RPMI supplemented with 10% FBS. Recombinant human cytokines GM-CSF and IL-4 (final concentration 1000 and 500 U/ml, respectively) were added on day 0, 2, 4 and 6. Cells were harvested on day 6 as immature DCs and characterized for surface marker expression by flow cytometry. DC maturation was carried out by culturing day-6 immature DCs in RPMI-10% FBS supplemented with GM-CSF, IL-4 and 50 μg/ml polyIC (Sigma, St. Louis Mo.). After two more days of culture, cells were harvested as mature DCs and characterized by surface marker expression by flow cytometry.
(§2) Receptor signaling assay. For individual measurements, cells were loaded for 45 min at room temperature with 2 μM indo-1/AM (Invitrogen, Carlsbad Calif.) in culture medium, then washed with 10 ml PBS and resuspended at 10^6 cells/ml in HBSS containing 0.1% BSA. Cytosolic calcium levels were determined using a Photon Technology International fluorimeter (excitation at 350 nm, ratio of dual emission at 400 and 490 nm). For measuring calcium dose responses, cells were analyzed with a Fluorometric Imaging Plate Reader 384 (FLIPR^384) (Molecular Devices, Sunnyvale, Calif.). Cells were loaded for 1 hr at 37° C. with 5 μM fluo-4 in HBSS with 0.1% BSA, then washed, transferred to black-wall 96-well plates, and subsequently excited at 505 nm with emission recorded at 530 nm with a standard protocol provided by the manufacture. Cells were stimulated with agonists 20 s after the monitoring of fluorescence began. Data were analyzed and plotted in arbitrary units of fluorescence using Prism. To ensure that responses were specific to FPRL1, we utilized a selective small-molecule antagonist of human FPRL1, generated by ChemoCentryx, which was optimized from a high throughput compound library screening approach.

human monocytes = assay: Calcium mobilization in freshly isolated human monocytes; type: cell-based; settings: for calcium mobilization: undigested chemokine or peptide, 100 nM (CCL23β up to 250 nM)
Experimental: as §1, §2

Molecule	chemotaxis (human neutrophils)	calcium response ([1]; immature DC, undigested)	calcium response ([1]; mature DC)	calcium mobilization (human monocytes)	magnitude of calcium signal versus CCL15 Δ24/leukotactin (human monocytes; both at 100 nM)
MLWRRKIGPQMTLSHAAG [SHAAGtide]	vigorous chemotaxis	much smaller calcium response	small amount of signaling activity	equipotent to CCL23β Δ24	
CCL23β Δ24: truncated form of CCL23β lacking the 24-residue N-terminal domain, beginning with the SHAAGtide insertion (protein, listed as Homo sapiens) MLWRRKIGPQMTLSHAAGFHATSADCCISYTPRSIPCSLLESYFETNSECSKPGVIFLTKKGRRFCANPSDKQVQVCMRMLKLDTRIKTRKN	vigorous chemotaxis	strong calcium response	diminished	particularly strong and sustained calcium profile	at least two fold higher
